These results are taken from US20210171647A1 (WUXI BIOLOGICS SHANGHAI, published 2021).

Assay in all cases: ELISA, antibody coated, OX40-ECD.His mutant supernatant; relative to silent alanine substitutions;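 also: captured OX40 mutant protein detected with HRP-labelled anti-His antibody, absorbance read-out, scaled to the mean signal of control mutants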
(An ELISA detects its analyte on a solid surface through an enzyme-linked reagent.)

For one test, the target named is T1, human OX40-ECD.His K79A (human, UniProt P43489 29-214).
T1 construct: extracellular domain; not shown: C-terminal His-tag
T1 sequence (looked up): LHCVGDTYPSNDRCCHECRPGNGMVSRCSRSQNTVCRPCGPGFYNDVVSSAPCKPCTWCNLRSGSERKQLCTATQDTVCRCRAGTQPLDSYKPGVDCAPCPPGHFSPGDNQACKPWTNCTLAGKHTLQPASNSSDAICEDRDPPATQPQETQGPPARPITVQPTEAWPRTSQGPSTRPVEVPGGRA

The target of another test is T2, human OX40-ECD.His Q114A (human, UniProt P43489 29-214).
T2 construct: extracellular domain; not shown: C-terminal His-tag
T2 sequence (looked up): T1 sequence (looked up) with A51K, Q86A

A further test concerns the target T3, human OX40-ECD.His V75A (human, UniProt P43489 29-214).
T3 construct: extracellular domain; not shown: C-terminal His-tag
T3 sequence (looked up): T1 sequence (looked up) with V47A, A51K

The target in a further test is T4, human OX40-ECD.His S77A (human, UniProt P43489 29-214).
T4 construct: extracellular domain; not shown: C-terminal His-tag
T4 sequence (looked up): T1 sequence (looked up) with S49A, A51K

In the next test the target is T5, human OX40-ECD.His V123A (human, UniProt P43489 29-214).
T5 construct: extracellular domain; not shown: C-terminal His-tag
T5 sequence (looked up): T1 sequence (looked up) with A51K, V95A

Another test deals with T6, human OX40-ECD.His S54A (human, UniProt P43489 29-214).
T6 construct: extracellular domain; not shown: C-terminal His-tag
T6 sequence (looked up): T1 sequence (looked up) with S26A, A51K

A further test addresses T7, human OX40-ECD.His S91A (human, UniProt P43489 29-214).
T7 construct: extracellular domain; not shown: C-terminal His-tag
T7 sequence (looked up): T1 sequence (looked up) with A51K, S63A

A further test addresses T8, human OX40-ECD.His T35A (human, UniProt P43489 29-214).
T8 construct: extracellular domain; not shown: C-terminal His-tag
T8 sequence (looked up): T1 sequence (looked up) with T7A, A51K

The target of a further test is T9, human OX40-ECD.His E167A (human, UniProt P43489 29-214).
T9 construct: extracellular domain; not shown: C-terminal His-tag
T9 sequence (looked up): T1 sequence (looked up) with A51K, E139A

A further test concerns the target T10, human OX40-ECD.His Q156A (human, UniProt P43489 29-214).
T10 construct: extracellular domain; not shown: C-terminal His-tag
T10 sequence (looked up): T1 sequence (looked up) with A51K, Q128A

Changes are numbered by the printed parent chain.

Method for human OX40-ECD.His E167A: (§1) After interacting with the supernatant that contains quantified OX40 mutants or human OX40-ECD.His protein, HRP conjugated anti-His antibody (1:5000, GenScript-A00612, CHN) was added as detection antibody. Absorbance was normalized according to the average of control mutants.
Method for human OX40-ECD.His K79A: as §1
Method for human OX40-ECD.His Q114A: as §1
Method for human OX40-ECD.His Q156A: as §1
Method for human OX40-ECD.His S54A: as §1
Method for human OX40-ECD.His S77A: as §1
Method for human OX40-ECD.His S91A: as §1
Method for human OX40-ECD.His T35A: as §1
Method for human OX40-ECD.His V123A: as §1
Method for human OX40-ECD.His V75A: as §1

B1: 1.134.9-u1-IgG1L (antibody, V domains shown)
VH: QVQLQESGPGLVKPSGTLSLTCAVSGGSISSYNWWSWVRQPPGKGLEWIGEIYHGGNTNYNPSLKSRVTMSVDNSKNQFSLKLSSVTAADTAVYYCARAPGDWGGSPYFDFWGQGTLVTVSS
VL: SSELTQDPAVSVALGQTVRITCQGDNLRTYYASWYQQKPGQAPILLIYGRNKRPSGIPDRFSGSSSGNTASLTITGAQAEDEAAYYCNSRDSSGNPVVFGGGTKLTVL
notes: fully human IgG1, lambda
B1: the “Fold Change” value in the test with human OX40-ECD.His K79A came to 0.992; with human OX40-ECD.His Q114A, 0.79; with human OX40-ECD.His V75A it was 0.994; with human OX40-ECD.His S77A it was 0.879; with human OX40-ECD.His V123A, 1; with human OX40-ECD.His S54A it was 0.993. Further, the “Fold Change” value with human OX40-ECD.His S91A turned out to be 0.886; with human OX40-ECD.His T35A, 1.02; in the test with human OX40-ECD.His E167A, 0.998; with human OX40-ECD.His Q156A, 0.97.
